The text below walks through data of US20240270821A1, “GIP/GLP1/GCG TRI-RECEPTOR AGONISTS AND USES THEREOF” (priority 2023, published 2024).

What all share (experiment): cell-based or functional assay
In one experiment the target is hGLP-1R (Homo sapiens, UniProt P43220).
Experiment [1] has as its target human glucagon receptor (human) (UniProt P47871).
For experiment [2], the target named is T1, human GIP receptor (human) (UniProt P48546).
T1 sequence (looked up): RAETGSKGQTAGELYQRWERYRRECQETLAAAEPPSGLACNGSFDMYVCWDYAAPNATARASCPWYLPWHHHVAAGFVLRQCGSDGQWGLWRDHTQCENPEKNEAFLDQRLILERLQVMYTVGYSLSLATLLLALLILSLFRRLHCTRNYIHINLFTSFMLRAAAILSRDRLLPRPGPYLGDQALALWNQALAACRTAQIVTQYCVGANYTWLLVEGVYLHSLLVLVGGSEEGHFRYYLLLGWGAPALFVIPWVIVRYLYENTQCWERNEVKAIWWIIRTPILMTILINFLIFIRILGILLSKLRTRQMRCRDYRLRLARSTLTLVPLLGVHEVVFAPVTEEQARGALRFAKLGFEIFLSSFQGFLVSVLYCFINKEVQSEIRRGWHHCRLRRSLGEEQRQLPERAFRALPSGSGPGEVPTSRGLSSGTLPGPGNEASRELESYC

Experiment [3] deals with human GLP1-R (SNAP-GLP-1R expressed in HEK293 cells) (human) (UniProt P43220).
human GLP1-R (SNAP-GLP-1R expressed in HEK293 cells) (human), sequence (P43220 24-463): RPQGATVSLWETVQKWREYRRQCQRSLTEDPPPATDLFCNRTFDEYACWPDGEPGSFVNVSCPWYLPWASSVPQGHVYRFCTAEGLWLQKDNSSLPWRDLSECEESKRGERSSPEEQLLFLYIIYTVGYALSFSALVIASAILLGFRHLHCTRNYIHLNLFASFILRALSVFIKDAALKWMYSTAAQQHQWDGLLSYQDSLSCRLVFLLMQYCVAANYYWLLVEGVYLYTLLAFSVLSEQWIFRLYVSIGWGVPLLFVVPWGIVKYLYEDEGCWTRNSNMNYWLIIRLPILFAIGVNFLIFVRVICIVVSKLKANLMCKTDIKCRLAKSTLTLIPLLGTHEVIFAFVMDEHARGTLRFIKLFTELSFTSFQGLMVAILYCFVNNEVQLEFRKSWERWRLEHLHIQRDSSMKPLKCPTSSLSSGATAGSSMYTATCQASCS

human glucagon receptor (human), sequence (P47871 26-477): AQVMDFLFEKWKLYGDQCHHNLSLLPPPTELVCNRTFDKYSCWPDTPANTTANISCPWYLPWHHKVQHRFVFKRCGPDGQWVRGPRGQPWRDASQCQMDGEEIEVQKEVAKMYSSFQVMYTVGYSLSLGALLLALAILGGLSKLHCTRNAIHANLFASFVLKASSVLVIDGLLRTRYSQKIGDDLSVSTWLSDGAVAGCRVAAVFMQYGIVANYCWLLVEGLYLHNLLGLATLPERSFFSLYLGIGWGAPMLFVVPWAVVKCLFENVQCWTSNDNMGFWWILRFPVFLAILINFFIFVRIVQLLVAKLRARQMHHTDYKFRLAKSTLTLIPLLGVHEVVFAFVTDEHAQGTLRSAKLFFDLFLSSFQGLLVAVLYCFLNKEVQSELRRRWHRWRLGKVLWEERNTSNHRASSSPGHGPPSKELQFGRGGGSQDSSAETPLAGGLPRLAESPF
hGLP-1R, sequence (P43220 24-463): as the sequence (P43220 24-463) above

B1: Example 8 (peptide)
chain: YXQGTFTSDFSKXLDKKAQXAFIEYLLAGGPSSGEPPPSGS
modifications: non-natural residues, acylation, C-terminal amide; synthetic construct; SITE 2: note = 2-Aminoisobutyric Acid; SITE 13: note = alpha-methyl-leucine; SITE 17: note = Lysine is chemically modified through conjugation of the epsilon-amino group of the Lysine side chain with (2-[2-(2-Amino-ethoxy)-ethoxy]-acetyl)-(gamma-Glu)-CO-(CH2) 18-CO2H; SITE 20: n
With B1, the Relative cAMP EC50 with hGLP-1R worked out at 2.11 nM; in experiment [1] it was 6.65 nM; in experiment [2], 0.231 nM. Further, the values for the cAMP Rel EC50 (in the presence of 1% HSA) (with hGLP-1R; in experiment [1]; in experiment [2]) were 603 nM, 1560 nM and 39.4 nM, respectively. In addition, the GLP1R Internalization EC50 in experiment [3] was 63.2 nM. For the same molecule, the Internalization % TOP in experiment [3] came out at 74%.

B2: Example 10 (peptide)
chain: YXQGTFTSDFSKXLDKKAQXAFIEYLLAGGPSSGAPPPSEG
modifications: Aib, αMeL; acylated lysine; C-terminal amide; synthetic construct; SITE 2: note = 2-Aminoisobutyric Acid; SITE 13: note = alpha-methyl-leucine; SITE 17: note = Lysine is chemically modified through conjugation of the epsilon-amino group of the Lysine side chain with (2-[2-(2-Amino-ethoxy)-ethoxy]-acetyl)-(gamma-Glu)-CO-(CH2) 18-CO2H; SITE 20: n
Turning to B2, the values for the Relative cAMP EC50 (in the experiment with hGLP-1R; in experiment [1]; in experiment [2]) were 1.85 nM, 7.62 nM and 0.226 nM, respectively. Besides, the cAMP Rel EC50 (in the presence of 1% HSA) with hGLP-1R was 375 nM; in experiment [1] it was 1640 nM; in experiment [2] it was 43 nM. In experiment [3], this molecule registered a GLP1R Internalization EC50 of 79.2 nM. The Internalization % TOP in experiment [3] worked out at 71.9%.

B3: Example 15 (peptide)
chain: YXQGTFTSDFSKXLDKKAQXAFIEYLLAGGPSSGAPPPGGE
modifications: acylated Lys, Aib, αMeL, C-terminal amide; synthetic construct; SITE 2: note = 2-Aminoisobutyric Acid; SITE 13: note = alpha-methyl-leucine; SITE 17: note = Lysine is chemically modified through conjugation of the epsilon-amino group of the Lysine side chain with (2-[2-(2-Amino-ethoxy)-ethoxy]-acetyl)-(gamma-Glu)-CO-(CH2) 18-CO2H; SITE 20: n
With B3, the Relative cAMP EC50 with hGLP-1R is 1.77 nM; in experiment [1], 11.1 nM; in experiment [2] it was 0.201 nM. For the same molecule, the cAMP Rel EC50 (in the presence of 1% HSA) in the experiment with hGLP-1R worked out at 276 nM; in experiment [1] it was 1980 nM; in experiment [2], 36.3 nM. For the same molecule, the GLP1R Internalization EC50 in experiment [3] was 79 nM. Besides, the Internalization % TOP in experiment [3] amounted to 74.9%.

B4: Example 13 (peptide)
chain: YXQGTFTSDFSKXLDKKAQXAFIEYLLAGGPSSGAPPPSSG
modifications: Aib, αMeL, acylated K, C-terminal amide; synthetic construct; SITE 2: note = 2-Aminoisobutyric Acid; SITE 13: note = alpha-methyl-leucine; SITE 17: note = Lysine is chemically modified through conjugation of the epsilon-amino group of the Lysine side chain with (2-[2-(2-Amino-ethoxy)-ethoxy]-acetyl)-(gamma-Glu)-CO-(CH2) 18-CO2H; SITE 20: n
Consider B4, for which, in the experiment with hGLP-1R, the Relative cAMP EC50 came to 1.78 nM and the cAMP Rel EC50 (in the presence of 1% HSA) was found to be 282 nM. Further, in experiment [1], the Relative cAMP EC50 was determined as 7.19 nM and the cAMP Rel EC50 (in the presence of 1% HSA) is 1670 nM. Further, in experiment [2], the Relative cAMP EC50 was found to be 0.196 nM and the cAMP Rel EC50 (in the presence of 1% HSA) amounted to 29.2 nM. In experiment [3], this molecule registered a GLP1R Internalization EC50 of 53.3 nM and an Internalization % TOP of 74.7%.

B5: Example 97 (peptide)
chain: YXQGTFTSDFSXXLDKKAQXAFIEYLLAGGPSSGEPPPSGE
modifications: synthetic construct; SITE 2: note = 2-Aminoisobutyric Acid; SITE 12: note = L-ornithine; SITE 13: note = alpha-methyl-leucine; SITE 17: note = Lysine is chemically modified through conjugation of the epsilon-amino group of the Lysine side chain with (2-[2-(2-Amino-ethoxy)-ethoxy]-acetyl)-(gamma-Glu)
Take B5: in the experiment with hGLP-1R, the Relative cAMP EC50 was 3.23 nM and the cAMP Rel EC50, nM (in the presence of 1% HSA) came to 605 nM. In addition, in experiment [1], the Relative cAMP EC50 worked out at 6.73 nM and the cAMP Rel EC50, nM (in the presence of 1% HSA) came to 1270 nM. For the same molecule, in experiment [2], the Relative cAMP EC50 is 0.176 nM and the cAMP Rel EC50, nM (in the presence of 1% HSA) came out at 23.9 nM. For the same molecule, in experiment [3], the GLP1R Internalization EC50 is 51.9 nM and the Internalization % TOP is 50.7%.

B6: Example 17 (peptide)
chain: YXQGTFTSDFSKXLDKKAQXAFIEYLLEGGPSSGAPPPGEG
modifications: Aib, αMeL, acylated Lys, C-terminal amide; synthetic construct; SITE 2: note = 2-Aminoisobutyric Acid; SITE 13: note = alpha-methyl-leucine; SITE 17: note = Lysine is chemically modified through conjugation of the epsilon-amino group of the Lysine side chain with (2-[2-(2-Amino-ethoxy)-ethoxy]-acetyl)2-(gamma-Glu)-CO-(CH2 )18-CO2H; SITE 20:
Regarding B6, in the experiment with hGLP-1R, the Relative cAMP EC50 worked out at 2.96 nM and the cAMP Rel EC50 (in the presence of 1% HSA) worked out at 543 nM. Besides, in experiment [1], the Relative cAMP EC50 was determined as 8.33 nM and the cAMP Rel EC50 (in the presence of 1% HSA) turned out to be 2040 nM. Besides, in experiment [2], the Relative cAMP EC50 was found to be 0.317 nM and the cAMP Rel EC50 (in the presence of 1% HSA) came out at 91.7 nM. In experiment [3], this molecule displayed a GLP1R Internalization EC50 of 66.2 nM and an Internalization % TOP of 72.2%.

B7: Example 94 (peptide)
chain: YXQGTFTSDFSXXLDKKAQXAFIEYLLAGGPSSGEPPPSGS
modifications: synthetic construct; SITE 2: note = 2-Aminoisobutyric Acid; SITE 12: note = L-ornithine; SITE 13: note = alpha-methyl-leucine; SITE 17: note = Lysine is chemically modified through conjugation of the epsilon-amino group of the Lysine side chain with (2-[2-(2-Amino-ethoxy)-ethoxy]-acetyl)-(gamma-Glu)
Regarding B7, in the experiment with hGLP-1R, the Relative cAMP EC50 is 2.63 nM and the cAMP Rel EC50, nM (in the presence of 1% HSA) was 480 nM. In addition, in experiment [1], the Relative cAMP EC50 turned out to be 8.16 nM and the cAMP Rel EC50, nM (in the presence of 1% HSA) is 1220 nM. Further, in experiment [2], the Relative cAMP EC50 was found to be 0.154 nM and the cAMP Rel EC50, nM (in the presence of 1% HSA) came out at 21.4 nM. Further, in experiment [3], the GLP1R Internalization EC50 worked out at 37.1 nM and the Internalization % TOP is 47.2%.

B8: Example 98 (peptide)
chain: YXQGTFTSDFSXXLDKKAQXAFIEYLLAGGPSSGEPPPEGE
modifications: synthetic construct; SITE 2: note = 2-Aminoisobutyric Acid; SITE 12: note = L-ornithine; SITE 13: note = alpha-methyl-leucine; SITE 17: note = Lysine is chemically modified through conjugation of the epsilon-amino group of the Lysine side chain with (2-[2-(2-Amino-ethoxy)-ethoxy]-acetyl)-(gamma-Glu)
With B8, in the experiment with hGLP-1R, the Relative cAMP EC50 came to 4.35 nM and the cAMP Rel EC50, nM (in the presence of 1% HSA) was 660 nM. Also, in experiment [1], the Relative cAMP EC50 stood at 6.91 nM and the cAMP Rel EC50, nM (in the presence of 1% HSA) was 867 nM. Besides, in experiment [2], the Relative cAMP EC50 is 0.179 nM and the cAMP Rel EC50, nM (in the presence of 1% HSA) turned out to be 33.8 nM. In experiment [3], this molecule returned a GLP1R Internalization EC50 of 56 nM and an Internalization % TOP of 49.3%.

B9: Example 7 (peptide)
chain: YXQGTFTSDFSKXLDKKAQXAFIEYLLAGGPSSGEPPPSSG
modifications: Aib, αMeL, acylated K, C-terminal amide; synthetic construct; SITE 2: note = 2-Aminoisobutyric Acid; SITE 13: note = alpha-methyl-leucine; SITE 17: note = Lysine is chemically modified through conjugation of the epsilon-amino group of the Lysine side chain with (2-[2-(2-Amino-ethoxy)-ethoxy]-acetyl)-(gamma-Glu)-CO-(CH2) 18-CO2H; SITE 20: n
As to B9, the Relative cAMP EC50 with hGLP-1R came to 2.11 nM; in experiment [1], 5.05 nM; in experiment [2], 0.203 nM. Moreover, the cAMP Rel EC50 (in the presence of 1% HSA) is 494 nM with hGLP-1R, 1210 nM in experiment [1] and 50.6 nM in experiment [2]. In experiment [3], the GLP1R Internalization EC50 came to 52.6 nM. Also, the Internalization % TOP in experiment [3] stood at 76.3%.
